In patent publication US9433687B2, “Anti-Notch3 antibodies and antibody-drug conjugates” (Pfizer Inc., priority 2012, dated 2016):

T1: human Notch3 NRR recombinant protein (Homo sapiens, UniProt Q9UM47)
T1 construct: made in house
T1 sequence (Q9UM47 with tags, fused parts or gaps): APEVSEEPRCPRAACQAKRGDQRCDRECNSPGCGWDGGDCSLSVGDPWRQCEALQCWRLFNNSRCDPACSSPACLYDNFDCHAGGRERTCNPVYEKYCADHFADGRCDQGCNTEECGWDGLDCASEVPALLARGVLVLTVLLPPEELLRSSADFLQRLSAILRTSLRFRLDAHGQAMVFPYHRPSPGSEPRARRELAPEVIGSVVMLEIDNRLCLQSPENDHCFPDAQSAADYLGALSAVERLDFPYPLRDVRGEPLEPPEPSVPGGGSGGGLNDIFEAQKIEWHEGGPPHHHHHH

T2: human Notch1 NRR-Fc (Homo sapiens, UniProt P46531)
T2 construct: Expression constructs encoding human Notch1 and Notch2 NRR regions, fused with human IgG1 Fc fragments; made in house; host or cells: CHO-PACE cells
T2 sequence (P46531 1446-1733 limits assumed): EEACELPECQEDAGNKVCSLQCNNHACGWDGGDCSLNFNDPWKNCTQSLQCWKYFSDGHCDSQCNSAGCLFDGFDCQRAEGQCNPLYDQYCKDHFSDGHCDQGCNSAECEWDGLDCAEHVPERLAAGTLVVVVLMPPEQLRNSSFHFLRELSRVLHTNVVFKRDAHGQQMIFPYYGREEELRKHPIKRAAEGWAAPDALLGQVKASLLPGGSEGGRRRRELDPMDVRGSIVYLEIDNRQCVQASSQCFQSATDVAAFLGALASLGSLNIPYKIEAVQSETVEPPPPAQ

T3: human Notch2 NRR-Fc (Homo sapiens, UniProt Q04721)
T3 construct: Expression constructs encoding human Notch1 and Notch2 NRR regions, fused with human IgG1 Fc fragments; made in house; host or cells: CHO-PACE cells
T3 sequence (Q04721 1425-1677 limits assumed): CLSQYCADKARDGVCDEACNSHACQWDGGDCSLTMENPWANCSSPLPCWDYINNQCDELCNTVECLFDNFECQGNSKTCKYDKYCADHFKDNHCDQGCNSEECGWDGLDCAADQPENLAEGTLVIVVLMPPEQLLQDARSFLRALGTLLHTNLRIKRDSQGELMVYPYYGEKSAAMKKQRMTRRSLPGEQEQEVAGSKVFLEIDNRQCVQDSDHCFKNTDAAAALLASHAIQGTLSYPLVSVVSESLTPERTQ

B1: ch28: rat-human chimeric anti-Notch3 antibody 28, rat variable regions fused with human IgG1 and human kappa (antibody, V domains shown)
VH: EVQLVESGGGLVQPGRSLTLSCVASGFTFRDYGMTWIRQAPGKGLTWVAYISSGSNYIYYAEAVKGRFTISRDNAKNTLYLQMTSLRSEDTALYFCTRRGPFVLDAWGQGASVTVSS
VL: DIQMTQSPSFLSASVGDRVTINCKASQSINRYLHWFQQKLGEAPKLLIYNANGLQTGIPSRFSGSGSGTDFTLTISSLQSEDVATYFCLQHNTWPDTFGAGTKLELK
B2: ch28-vc0101: ch28 conjugated to vc0101 linker-payload (conjugate)
VH: B1 VH
VL: B1 VL
B3: ch75-mc0131 (conjugate)
VH: QVKLLQSGAALVKPGASVKMSCKASGYAFTDYWVTWVKQSHGKSLEWIGEISPNSGGTNFNEKFKGKATLTVDKSTSTAYMELSRLTSEDSAIYYCTRGEIRYNWFAYWGQGTLVTVSS
VL: DIQMTQSPSSLSASVGDRVTITCKASQNVGNNIAWYQQKPGKAPKLLIYYASNRYTGVPSRFSGSGYGTDFTLTISSLQPEDFATYYCQRLYNSPFTFGGGTKVEIK

What was measured:
[1] = Thermal stability by differential scanning calorimetry (DSC); format: physicochemical; conditions: 0.3 mg/ml in PBS
Method: There is a positive correlation between the thermal stability of a protein or protein domain with the overall stability of the protein or protein domain. A higher melting point of a protein or protein domain often provides improved manufacturability and longer shelf life. Differential scanning calorimetry (DSC) was used to assess the thermal stability of hu28 and hu75 versus ch28 and ch75, respectively. Protein samples were diluted in PBS to 0.3 mg/ml in a volume of 250 μl. The corresponding formulation buffer blank was used for the reference sample. Both samples were thoroughly degassed using a MicroCal ThermoVac Sample Degassing and Thermostat (Microcal, Inc., Northampton, Mass.) set to 8° C. Samples were dispensed into the appropriate cells of a MicroCal VP-DSC Capillary Cell MicroCalorimter (MicroCal, Inc., Northampton, Mass.). Samples were equilibrated for 4 minutes at 15° C. and then scanned up to 100° C. at a rate of 100° C. per hour. A filtering period of 20 seconds was selected. Raw data was baseline corrected and the protein concentration was normalized. Origin Software (OriginLab Corporation, Northampton, Mass.) was used to fit the data to an MN2-State Model with an appropriate number of transitions.

[2] = target: T1, human Notch3 NRR recombinant protein; assay: Surface plasmon resonance (Biacore) kinetic analysis; format: binding; conditions: antibody captured; 1:1 Langmuir model
Method: The kinetic constants of the anti-Notch3 NRR interactions were determined by surface plasmon resonance (Biacore® T100, Biacore Inc., Piscataway, N.J.). Flow cells of a CM5 chip were immobilized with approximately 10,000 response units (RU) of anti-human IgG-Fc (Biacore®) in 10 mM Glycine, pH 5.0 at 10 μl/min for 600 seconds. 10 μg/ml of anti-Notch3 antibodies ch28 and hu28, and ch75 and hu75 were diluted in TBS with 1 mM CaCl2 were captured at 10 μl/min. Association of four concentrations of human Notch3 NRR recombinant protein (from 3.7-100 nM) and a zero concentration (running buffer) at 100 μl/min were recorded for 3 minutes in TBS with 1 mM CaCl2. Dissociation of the complexes was measured for 10 minutes. The surface of the chip was regenerated by injecting 3M MgCl2 with 3 mM EGTA for 60 seconds at 10 μl/min. Curves obtained after subtraction of the reference and buffer signals were fitted to a 1:1 Langmuir binding model with Biacore® T100 Evaluation Software (Biacore®).

human Notch1 NRR-Fc = target: T2, human Notch1 NRR-Fc; assay: Binding to Notch1 NRR-Fc; conditions: N/B = non-binding
Text: (§1) Other members of the Notch receptor family play important roles in biological processes. For example, a Notch1 or Notch2 deficiency leads to embryonic death in mouse models. In contrast, a Notch4 deficiency results in no detectable phenotype in mouse models. The closest homologues of the Notch3 NRR region are Notch1 and Notch2 (˜50% homology), and Notch4 is a more distant homologue (˜30% homology). Cross-reactivity of anti-Notch3 antibodies to other members of the Notch family, especially Notch1 and 2, may lead to undesired effects in patients. Therefore, the potential cross-reactivity of r28 and hu28, along with r75 and hu75 to other Notch family members were assessed.
(§2) Expression constructs encoding human Notch1 and Notch2 NRR regions, fused with human IgG1 Fc fragments were stably introduced into CHO-PACE cells. Conditioned media from these cells expressing NRR-Fc fusions were collected. Human Notch2 NRR-Fc and human Notch1 NRR-Fc were purified by protein A affinity followed by size exclusion chromatography (SEC). Purified preparations were dialysed into TBS with 1 mM CaCl2 and analyzed on analytical SEC to be >99% in purity.

human Notch2 NRR-Fc = target: T3, human Notch2 NRR-Fc; assay: Binding to Notch2 NRR-Fc; conditions: N/B = non-binding
Text: as §1, §2

HCC2429 (lung cancer) = assay: In vitro cytotoxicity (MTS), HCC2429; format: cell-based, human; conditions: Table 13; four days; LP = lacked potency
Method: (§3) The effects of anti-Notch3 ADCs were assessed on 1) cell lines endogenously expressing Notch3 protein: HCC2429 (lung cancer), OVCAR3 (ovarian cancer) and MDA-MB-468 (breast cancer), 2) cell lines engineered to over-express full length human Notch3 protein: MDA-MB-468/hNotch3 and U2OS/hNotch3, and 3) a negative control cell line (SW900) using an MTS cellular viability indicator (Promega, Madison, Wis.). These cell lines were cultured with increasing concentrations of anti-Notch3 ADCs comprising rat-human chimeric anti-Notch3 antibodies, ch28 and ch75, and humanized anti-Notch3 antibodies, hu28 and hu75, conjugated to various linker-payload combinations of the present invention. As a specificity control for the anti-Notch3-ADCs, non-targeted control-ADCs (huNeg8.8-ADCs or ch2H6-ADCs) were also tested on the same cell lines. After four days, viability of each culture was assessed. IC50 values were calculated by logistic non-linear regression, model #203 with XL fit v4.2 (IDBS, Guildford, Surry, UK) and presented as ng Ab/mL. The drug antibody ratio (DAR) is also provided.
(§4) This process generated the anti-Notch3 cysteine mutant ADCs: hu28-(L443C)-vc0101 and hu28-(L443C/κK183C)-vc0101. The activity of the anti-Notch3 cysteine mutant ADCs were assessed on cell lines endogenously expressing Notch3 protein: HCC2429 (lung cancer) and OVCAR3 (ovarian cancer) using an MTS cellular viability indicator as described in previous Examples.

MDA-MB-468/hNotch3 = target: T4, MDA-MB-468/hNotch3 (Homo sapiens, UniProt Q9UM47); assay: In vitro cytotoxicity (MTS), MDA-MB-468/hNotch3; format: cell-based; conditions: Table 13; four days; LP = lacked potency
T4 construct: cell lines engineered to over-express full length human Notch3 protein: MDA-MB-468/hNotch3 and U2OS/hNotch3; expressed in transfected cells; host or cells: MDA-MB-468
T4 sequence (Q9UM47 40-2321): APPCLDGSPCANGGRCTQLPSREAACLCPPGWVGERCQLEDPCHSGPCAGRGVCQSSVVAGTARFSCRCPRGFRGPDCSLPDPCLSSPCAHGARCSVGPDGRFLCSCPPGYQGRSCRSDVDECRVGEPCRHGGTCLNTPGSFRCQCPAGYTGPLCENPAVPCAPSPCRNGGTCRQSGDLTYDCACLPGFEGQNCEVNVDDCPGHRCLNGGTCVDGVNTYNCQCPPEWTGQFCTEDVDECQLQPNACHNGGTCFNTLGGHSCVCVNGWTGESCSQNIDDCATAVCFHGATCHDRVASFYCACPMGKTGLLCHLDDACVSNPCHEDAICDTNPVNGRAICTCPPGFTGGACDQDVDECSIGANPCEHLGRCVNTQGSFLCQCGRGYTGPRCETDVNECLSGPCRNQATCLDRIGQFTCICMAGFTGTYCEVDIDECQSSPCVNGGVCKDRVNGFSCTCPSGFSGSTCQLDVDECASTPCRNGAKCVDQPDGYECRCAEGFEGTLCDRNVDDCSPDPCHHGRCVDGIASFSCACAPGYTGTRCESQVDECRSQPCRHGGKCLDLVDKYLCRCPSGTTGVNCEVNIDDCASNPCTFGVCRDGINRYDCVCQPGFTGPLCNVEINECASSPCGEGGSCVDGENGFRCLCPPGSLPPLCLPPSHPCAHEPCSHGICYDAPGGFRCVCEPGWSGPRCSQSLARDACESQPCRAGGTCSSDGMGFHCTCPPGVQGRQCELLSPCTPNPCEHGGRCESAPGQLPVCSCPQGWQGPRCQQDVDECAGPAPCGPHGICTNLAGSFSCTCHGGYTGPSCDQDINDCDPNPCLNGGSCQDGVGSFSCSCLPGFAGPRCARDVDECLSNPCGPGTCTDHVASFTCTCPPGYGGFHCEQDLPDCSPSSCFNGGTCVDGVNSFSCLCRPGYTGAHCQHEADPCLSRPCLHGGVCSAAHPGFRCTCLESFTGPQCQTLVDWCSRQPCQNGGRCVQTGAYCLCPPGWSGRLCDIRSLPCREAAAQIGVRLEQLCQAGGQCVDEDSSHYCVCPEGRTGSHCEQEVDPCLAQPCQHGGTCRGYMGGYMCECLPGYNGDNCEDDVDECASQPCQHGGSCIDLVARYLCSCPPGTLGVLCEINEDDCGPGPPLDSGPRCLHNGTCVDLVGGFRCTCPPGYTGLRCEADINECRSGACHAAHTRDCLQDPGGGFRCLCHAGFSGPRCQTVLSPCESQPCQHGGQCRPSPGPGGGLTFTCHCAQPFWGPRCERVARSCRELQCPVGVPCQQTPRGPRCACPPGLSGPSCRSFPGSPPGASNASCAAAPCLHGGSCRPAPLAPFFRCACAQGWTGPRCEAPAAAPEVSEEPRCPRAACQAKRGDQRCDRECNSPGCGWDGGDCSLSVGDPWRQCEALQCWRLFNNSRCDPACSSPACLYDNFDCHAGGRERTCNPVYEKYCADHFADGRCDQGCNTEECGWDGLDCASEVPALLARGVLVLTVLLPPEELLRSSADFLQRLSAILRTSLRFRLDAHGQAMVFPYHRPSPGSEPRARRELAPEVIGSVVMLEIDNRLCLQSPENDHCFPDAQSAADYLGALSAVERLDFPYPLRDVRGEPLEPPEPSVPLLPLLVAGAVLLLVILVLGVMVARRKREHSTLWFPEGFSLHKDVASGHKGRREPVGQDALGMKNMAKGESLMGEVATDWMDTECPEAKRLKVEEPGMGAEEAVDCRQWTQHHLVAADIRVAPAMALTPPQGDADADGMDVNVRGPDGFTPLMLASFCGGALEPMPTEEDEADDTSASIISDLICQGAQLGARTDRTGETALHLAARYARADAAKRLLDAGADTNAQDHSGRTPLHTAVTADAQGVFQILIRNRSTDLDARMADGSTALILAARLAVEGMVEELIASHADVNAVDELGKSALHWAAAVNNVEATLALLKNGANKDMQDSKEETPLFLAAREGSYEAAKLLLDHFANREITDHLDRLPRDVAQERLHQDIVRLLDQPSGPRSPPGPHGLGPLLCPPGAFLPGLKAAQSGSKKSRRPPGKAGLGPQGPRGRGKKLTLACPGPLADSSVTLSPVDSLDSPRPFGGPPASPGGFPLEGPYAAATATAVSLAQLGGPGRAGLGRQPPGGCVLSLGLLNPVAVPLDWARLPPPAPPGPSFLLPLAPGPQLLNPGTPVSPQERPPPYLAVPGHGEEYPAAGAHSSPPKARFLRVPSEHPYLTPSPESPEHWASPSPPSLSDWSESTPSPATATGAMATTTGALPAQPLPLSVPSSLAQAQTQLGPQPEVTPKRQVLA
Method: as §3

[3] = tested on: MDA-MB-468 (breast cancer); assay: In vitro cytotoxicity (MTS), MDA-MB-468; format: cell-based, human; conditions: Table 13; four days; LP = lacked potency
Method: as §3

U2OS/hNotch3 = U2OS/hNotch3 (Homo sapiens, UniProt Q9UM47); assay: In vitro cytotoxicity (MTS), U2OS/hNotch3; format: cell-based; parameters: U-2 OS cells stably over-expressing human full length Notch3 protein on cell surface; expressed in transfected cells; host or cells: U-2 OS (human osteosarcoma); conditions: Table 13; four days; LP = lacked potency
Sequence of U2OS/hNotch3 (Q9UM47 40-2321): as above
Method: as §3

OVCAR3 (ovarian cancer) = assay: In vitro cytotoxicity (MTS), OVCAR3; format: cell-based, human; conditions: Table 13; four days; LP = lacked potency
Method: as §3, §4

N87 gastric xenografts = assay: N87 gastric xenograft model; format: in vivo, mouse; conditions: 5 mg/kg iv Q4dx4; FIG. 16D, 16E
Method: Similar in vivo experiments were performed with the N87 gastric cancer cell line as described above. To generate xenografts, nude (Nu/Nu) female mice were implanted subcutaneously with 8×10^6 N87 cells in 50% Matrigel (BD Biosciences).
The N87 gastric model was also dosed intravenously Q4d×4 with PBS vehicle, rat-human chimeric anti-Notch3 ADCs and control huNeg-8.8 ADCs, at a dose of 5 mg/kg as provided in FIG. 16D.
The N87 gastric model was also dosed intravenously Q4d×4 with PBS vehicle and rat-human chimeric anti-Notch3 ADCs ch28-mc0131, ch75-mc0131, ch28-m(H2O)c-0131 and ch75-m(H2O)c-0131 at a dose of 5 mg/kg as provided in FIG. 16E.

| Molecule | Tm ± Standard Deviation, CH2 [1] [°C] | Tm ± Standard Deviation, CH3 [1] [°C] | Tm ± Standard Deviation, Fab [1] [°C] | ka [2] [M⁻¹ s⁻¹] | kd [2] [s⁻¹] | Binding to Notch1 NRR-Fc (human Notch1 NRR-Fc) | Binding to Notch2 NRR-Fc (human Notch2 NRR-Fc) | IC50 (ng Ab/mL) ± S.E.M., HCC2429 (HCC2429 (lung cancer)) [ng Ab/mL] | IC50 (ng Ab/mL) ± S.E.M., MDA-MB-468/hNotch3 (MDA-MB-468/hNotch3) [ng Ab/mL] | IC50 (ng Ab/mL) ± S.E.M., MDA-MB-468 [3] [ng Ab/mL] | IC50 (ng Ab/mL) ± S.E.M., U2OS/hNotch3 (U2OS/hNotch3) [ng Ab/mL] | IC50 (ng Ab/mL) ± S.E.M., OVCAR3 (OVCAR3 (ovarian cancer)) [ng Ab/mL] | growth of N87 gastric xenografts (N87 gastric xenografts) |
| --- | --- | --- | --- | --- | --- | --- | --- | --- | --- | --- | --- | --- | --- |
| B1 | 70.20 ± 0.05 | 84.24 ± 0.07 | 73.22 ± 0.73 | 409000 | 0.000249 | N/B | N/B | – | – | – | – | – | – |
| B2 | – | – | – | – | – | – | – | 3230 ± 1116.5 | 4 ± 0.5 | 5443 ± 2630.9 | 95 ± 18.2 | 635 | – |
| B3 | – | – | – | – | – | – | – | 671 ± 406.5 | – | 8202 ± 2773.0 | 19 | 289 | inhibited growth of N87 gastric xenografts |
